Data reported in patent publication US8287851B2, “Use of interleukin 17E for the treatment of cancer” (Lorus Therapeutics Inc., priority 2005, dated 2012).
Each block holds one molecule with its values, some of them ahead of it.

Key:
IL-5 = assay: Serum IL-5 in tumour-engrafted mice (ELISA); assay type: in vivo, CD1-nude mice
Experimental: The expression of IL-5 in serum was examined in tumour-engrafted mice treated with IL-17E. CD1-nude mice were engrafted with either C8161 human melanoma cells or MiaPaCa2 pancreatic cancer cells and treated with either PBS or murine IL-17E as described previously. Serum samples were collected individually from each mouse at the endpoint of the experiment, and IL-5 levels were determined by ELISA assay (BD OptEIA; BD Biosciences), according to the manufacturer's instructions. Immunoassay plates were coated with anti-mouse IL-5 monoclonal antibody as a capture antibody and incubated with serial dilutions of mouse sera. Plates were washed three times with wash buffer and blocked for 1 hr at room temp. Plates were incubated with biotinylated anti-mouse IL-5 monoclonal antibody and avidin-horseradish peroxidase conjugate for 1 hour, followed by seven washes. Substrate solution was added for 30 minutes, followed by stop solution, prior to measurement of absorbance (450/570 nm). Statistical analysis was performed to compare IL-5 levels. P values <0.05 were considered to be significant.

murine IL-17E receptor = target: T1, murine IL-17E receptor (Mus musculus, UniProt Q9JIP3); assay: FACS binding to IL-17E receptor on pre-B cell line 70Z/3; details: 1 μg/10^6 cells, 30 minutes at 4° C.
T1 construct: murine IL-17E receptor present on the pre-B cell line 70Z/3; endogenous in cells; host or cells: murine pre-B cell line 70Z/3
T1 sequence (Q9JIP3 18-499): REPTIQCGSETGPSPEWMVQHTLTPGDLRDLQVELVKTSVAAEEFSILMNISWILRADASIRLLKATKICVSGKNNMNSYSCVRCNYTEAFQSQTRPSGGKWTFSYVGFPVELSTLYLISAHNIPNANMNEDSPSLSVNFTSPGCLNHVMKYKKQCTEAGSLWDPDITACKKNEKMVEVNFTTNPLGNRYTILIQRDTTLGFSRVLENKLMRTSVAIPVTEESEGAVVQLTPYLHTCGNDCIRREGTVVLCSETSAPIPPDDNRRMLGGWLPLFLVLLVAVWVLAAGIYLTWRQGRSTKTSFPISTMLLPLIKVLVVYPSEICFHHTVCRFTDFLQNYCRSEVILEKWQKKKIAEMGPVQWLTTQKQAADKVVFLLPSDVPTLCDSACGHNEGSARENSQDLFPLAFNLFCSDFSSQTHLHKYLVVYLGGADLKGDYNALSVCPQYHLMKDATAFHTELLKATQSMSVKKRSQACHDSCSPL
Experimental: The ability of human and murine interleukin 17E to bind to the IL-17E receptor was examined using the murine pre-B cell line 70Z/3 (Paige, C. J., et al. (1981) Nature 292:631-3).
1×10^6 70Z/3 cells/sample were incubated with either murine or human IL-17E (1 μg/10^6 cells) for 30 minutes at 4° C. After washing twice, cells that had been incubated with murine IL-17E were incubated with biotin-conjugated goat anti-mouse IL17E and phycoerythrin (PE)-Cy5.5-conjugated streptavidin. Cells that had been incubated with human IL-17E were incubated with biotin-conjugated goat anti-human IL17E-biotin and phycoerythrin (PE)-Cy5.5-conjugated streptavidin. As negative controls, cells were stained with antibodies as described without preincubation with human or murine IL-17E. Samples were then fixed with 0.5% paraformaldehyde prior to FACS analysis.

[1] = tested on: protein tyrosine kinase Lyn; assay: Lyn phosphorylation in B cell lymphoma cell line WEHI-231 (Western blot); assay type: cell-based; details: 0.21 μg per 1.5×10^6 WEHI-231 cells, 0, 2, 5 minutes
Description: The effect of IL-17E on activation of signaling pathways in B cells was examined using the B cell lymphoma cell line WEHI-231 (Lanier L. L., et al. (1981) J. Immunol. 126:626-31). Specifically, the activation status of the protein tyrosine kinase Lyn and the B cell linker protein BLNK (Tsubata, T., et al., (2001) Int Rev Immunol 20:675-8) were examined. An increased level of the phosphorylated forms of these proteins is indicative of activation.
A total of 1.5×10^6 cells per sample were stimulated in vitro with 0.21 μg of either human IL-17E or murine IL17E at 37° C. Cells were lysed at time points t=0, 2, and 5 minutes in lysis buffer for 30 minutes on ice, followed by centrifugation for 10 minutes. Samples containing approximately 25 μg of protein were separated by SDS-PAGE, followed by transfer to membranes for Western blotting.
For detection of Lyn, Western blots were incubated with rabbit anti-Lyn antibodies, followed by horseradish peroxidase (HRP)-conjugated anti-rabbit antibodies. All blots were exposed to autoradiography film and developed to detect proteins of interest by chemiluminescence.
To assess equivalence in protein loading among lanes in both experiments, blots were stripped of antibodies and incubated with mouse anti-GAPDH antibodies and HRP-conjugated anti-mouse antibodies, followed by chemiluminescence-based detection.

[2] = target: T2, IL17BR interaction with protein tyrosine kinase Lyn (Mus musculus, UniProt Q9JIP3); assay: Coimmunoprecipitation of Lyn and IL17BR in WEHI-231 cells; assay type: cell-based; details: 0.1 μg per 5×10^6 WEHI-231 cells, 5 minutes at 37° C.
T2 construct: using the B cell lymphoma cell line WEHI-231; endogenous in cells; host or cells: WEHI-231 B cell lymphoma cells
T2 sequence (Q9JIP3 18-499): T1 sequence (Q9JIP3 18-499)
Experimental: The effect of interleukin 17E on the induction of interaction of its receptor IL17BR with the protein tyrosine kinase Lyn was examined using the B cell lymphoma cell line WEHI-231.
A total of 5×10^6 cells per sample were incubated with 0.1 μg of human IL17E (hIL-17E) for 5 minutes at 37° C. Cells were lysed in lysis buffer for 30 minutes on ice, followed by centrifugation for 10 minutes. The tyrosine kinase Lyn was immunoprecipitated from 350 μg of protein lysate using rabbit anti-Lyn antibodies coupled to Protein A Sepharose beads. Immunoprecipitated samples containing approximately 25 μg of protein were separated by SDS-PAGE, followed by transfer to membranes for Western blotting.
For detection of phosphorylated Lyn, blots were incubated with anti-phosphotyrosine antibodies, followed by horseradish peroxidase (HRP)-conjugated anti-mouse antibodies.
For detection of IL17BR, blots were incubated with biotin-conjugated-rat anti-IL17BR antibodies, followed by HRP-conjugated streptavidin.
To assess equivalent loading of Lyn, blots were incubated with rabbit anti-Lyn antibodies, followed by HRP-conjugated-anti-rabbit antibodies.
All blots were exposed to autoradiography film and developed to detect chemiluminescence.

- binding to murine IL-17E receptor on 70Z/3 cells (FACS) (murine IL-17E receptor): bound
B1: murine IL-17E: Murine IL-17E from R&D Systems; predominant form starting at Val 17 of GenBank NP 542767 (protein)
chain: VSLRIQEGCSHLPSCCPSKEQEPPEEWLKWSSASVSPPEPLSHTHHAESCRASKDGPLNSRAISPWSYELDRDLNRVPQDLYHARCLCPHCVSLQTGSHMDPLGNSVPLYHNQTVFYRRPCHGEEGTHRRYCLERRLYRVSLACVCVRPRVMA
- serum levels of IL-5 as compared to PBS (IL-5; mice engrafted with human melanoma C8161 cells): significantly higher
- serum levels of IL-5 as compared to PBS (IL-5; mice engrafted with human pancreatic cancer MiaPaCa2 cells): significantly higher
- levels of phosphorylated Lyn protein [1]: increased

- binding to murine IL-17E receptor on 70Z/3 cells (FACS) (murine IL-17E receptor): bound
- coimmunoprecipitation of Lyn and IL17BR [2]: coimmunoprecipitated
B2: human IL-17E: Recombinant human IL-17E from PeproTech; two 145 amino acid chains, predominant form starting at Tyr 33 of GenBank AAG40848 (protein, listed as Homo sapiens)
chain: YSHWPSCCPSKGQDTSEELLRWSTVPVPPLEPARPNRHPESCRASEDGPLNSRAISPWRYELDRDLNRLPQDLYHARCLCPHCVSLQTGSHMDPRGNSELLYHNQTVFYRRPCHGEKGTHKGYCLERRLYRVSLACVCVRPRVMG
- levels of phosphorylated Lyn protein [1]: increased
